Biological target: T1, bacteriophage tail protein T4p12 (bacteriophage T4, UniProt P10930 1-527)
T1 sequence (looked up): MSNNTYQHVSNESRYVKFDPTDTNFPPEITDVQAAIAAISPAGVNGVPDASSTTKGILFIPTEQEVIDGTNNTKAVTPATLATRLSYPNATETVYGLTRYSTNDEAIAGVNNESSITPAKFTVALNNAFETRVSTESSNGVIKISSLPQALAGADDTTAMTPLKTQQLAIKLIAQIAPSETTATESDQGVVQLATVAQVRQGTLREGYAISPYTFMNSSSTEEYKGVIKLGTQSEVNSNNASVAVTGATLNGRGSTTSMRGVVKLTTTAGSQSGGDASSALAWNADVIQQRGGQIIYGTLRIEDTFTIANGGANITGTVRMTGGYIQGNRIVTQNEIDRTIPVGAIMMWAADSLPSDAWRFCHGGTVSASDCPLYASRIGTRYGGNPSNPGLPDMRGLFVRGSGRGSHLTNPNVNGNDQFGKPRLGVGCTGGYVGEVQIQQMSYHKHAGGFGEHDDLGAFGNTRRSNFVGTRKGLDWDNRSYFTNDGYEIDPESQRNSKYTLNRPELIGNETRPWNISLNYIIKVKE
Experiment: column chromatography; Miro2p12 covalently immobilised on sepharose, control columns without LPS; T4p12 in fractions read by absorption at 280 nm
Method: The amount of the bacteriophage tail protein p12 was plotted against the fractions of the chromatography run. […] The arrow marks the application of p12 onto the column. The fractions F2-F5 were collected after the application. The amount of p12 (stated in mg) was detected by absorption measurement at 280 nm. The fraction volume was 1 ml for fractions F1-F4 and 2 ml for fraction F5. The dissolution of bound T4p12 protein in fraction F5 was affected by addition of 2 mM EDTA to the running buffer (20 mM Hepes, 150 mM NaCl, 0.1 mM CaCl₂, pH 7.5). The bacteriophage tail protein T4p12 was retained at the columns prior loaded with endotoxin, while it elutes without delay through the columns containing no endotoxin.
Bacteriophage tail protein Miro2p12 was immobilized to NHS-Sepharose (Amersham Pharmacia) (3.4 mg protein per 1 ml sepharose) and out of this 4 column were cast with a volume of 0.5 ml each. The columns were washed with each 3 ml sodium phosphate buffer (20 mM sodium phosphate, pH 12.0) and with each 3 ml regeneration buffer (20 mM Hepes, 150 mM NaCl, 2 mM EDTA, pH 7.5). […] The flow-through was collected three times in fractions of 1 ml and once of 2 ml and the concentrations of the bacteriophage tail protein T4p12 was determined via absorption measurement at 280 nm in these fractions (FIG. 5). […]

B1: bacteriophage tail protein Miro2p12 (other)
chain: MAQNNYNHYSDLAKYTIFDPTNTQWPVAIKDVQSALELIGSWARTDTGLPVASPTVAGVIRTATQAEVDAGTIGNAAVTPATLKSTVTRPEATTAVLGLTRYATNTEAAALTAGNRTITAAALGHVFKTVKAQENVDGTVRLTTAAQAQAGTDETTAVTPKRVVEMIGKFSVSPPSYTSATESNLGLVRVATQAQVAAGAVHDGYAVTPKTFMASKASDSVFGIVKFAKDSDVASATSNNLAVTPKSLQALKSTKDKYGLTRLSGSPTTDASLAAAATDAVFKTRRINGKTLDNDITITNNDINCYTRQESDGRYMPAGTRVGNVTWVEGQSWISRGATFTCNAPWEASSRLALNVNVKFERNNDGYDNRIFRFVVIVNGSQWGGELTLNIENTKGGRNGHSWRFEAYASSNFFFNNIPPNATVQIRPTEDSRIIFYDCMLTFCTNRP
notes: The only purification described is of the N-Strep form
binding result: no binding (tested: 0.5 ml of 0.844 mg/ml T4p12 applied)
